{"source": "patent US20200407452A1", "about": "(published 2020)", "key": {"[1]": {"biological_target": "T1, native human MET on living cells (human, UniProt P08581 25-1390)", "T1 sequence (P08581 25-1390)": "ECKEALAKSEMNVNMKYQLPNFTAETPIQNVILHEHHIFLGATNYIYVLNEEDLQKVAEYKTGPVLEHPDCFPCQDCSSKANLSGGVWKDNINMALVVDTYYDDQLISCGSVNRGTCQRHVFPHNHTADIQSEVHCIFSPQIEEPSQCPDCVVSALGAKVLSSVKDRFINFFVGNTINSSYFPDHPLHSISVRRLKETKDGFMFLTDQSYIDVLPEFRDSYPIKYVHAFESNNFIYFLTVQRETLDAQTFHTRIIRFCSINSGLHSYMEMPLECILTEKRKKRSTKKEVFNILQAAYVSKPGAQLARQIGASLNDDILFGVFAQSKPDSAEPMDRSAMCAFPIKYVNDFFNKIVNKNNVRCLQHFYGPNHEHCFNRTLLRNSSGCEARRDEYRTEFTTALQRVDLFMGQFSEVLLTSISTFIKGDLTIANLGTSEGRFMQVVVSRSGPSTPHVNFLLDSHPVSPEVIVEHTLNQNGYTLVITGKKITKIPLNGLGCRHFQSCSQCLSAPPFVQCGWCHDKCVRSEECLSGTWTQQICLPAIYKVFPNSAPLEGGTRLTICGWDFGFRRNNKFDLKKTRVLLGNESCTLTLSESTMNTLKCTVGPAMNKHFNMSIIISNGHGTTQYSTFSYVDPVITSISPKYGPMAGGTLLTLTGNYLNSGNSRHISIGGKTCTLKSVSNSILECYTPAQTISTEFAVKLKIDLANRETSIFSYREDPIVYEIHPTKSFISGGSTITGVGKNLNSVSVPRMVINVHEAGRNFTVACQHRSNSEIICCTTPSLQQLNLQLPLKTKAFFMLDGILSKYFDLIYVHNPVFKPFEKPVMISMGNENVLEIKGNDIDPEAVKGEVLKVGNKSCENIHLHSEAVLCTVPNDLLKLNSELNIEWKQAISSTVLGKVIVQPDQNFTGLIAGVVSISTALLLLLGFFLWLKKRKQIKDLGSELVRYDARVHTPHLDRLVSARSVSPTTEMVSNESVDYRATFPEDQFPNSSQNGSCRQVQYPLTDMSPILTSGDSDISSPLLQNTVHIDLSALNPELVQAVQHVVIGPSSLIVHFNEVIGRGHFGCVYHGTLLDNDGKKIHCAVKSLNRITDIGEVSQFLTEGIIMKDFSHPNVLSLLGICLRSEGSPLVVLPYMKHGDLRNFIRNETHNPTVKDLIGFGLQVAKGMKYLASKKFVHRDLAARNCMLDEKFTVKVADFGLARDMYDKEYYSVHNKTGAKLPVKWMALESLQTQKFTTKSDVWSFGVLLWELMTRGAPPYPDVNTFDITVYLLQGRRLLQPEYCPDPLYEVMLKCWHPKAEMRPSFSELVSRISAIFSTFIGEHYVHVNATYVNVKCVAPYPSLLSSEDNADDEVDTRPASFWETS", "assay": "cell-based or functional assay"}, "[2]": {"biological_target": "T2, native mouse MET on living cells (mouse, UniProt P16056 25-1379)", "assay": "cell-based or functional assay"}, "[3]": {"biological_target": "T1, native human MET on living cells", "assay": "cell-based or functional assay", "remark": "listed apart in the source"}, "[4]": {"biological_target": "T2, native mouse MET on living cells", "assay": "cell-based or functional assay", "remark": "listed apart in the source"}, "[5]": {"biological_target": "T1, native human MET on living cells", "assay": "cell-based or functional assay", "remark": "listed apart in the source"}, "[6]": {"biological_target": "T2, native mouse MET on living cells", "assay": "cell-based or functional assay", "remark": "listed apart in the source"}, "human MET ECD": {"biological_target": "T3, human MET ECD (human, UniProt P08581 25-932)", "T3 construct": "range 1-932; recombinant; range as printed includes the signal peptide; also called hMET; hMET ECD", "T3 sequence (P08581 25-932 limits assumed, form in doubt)": "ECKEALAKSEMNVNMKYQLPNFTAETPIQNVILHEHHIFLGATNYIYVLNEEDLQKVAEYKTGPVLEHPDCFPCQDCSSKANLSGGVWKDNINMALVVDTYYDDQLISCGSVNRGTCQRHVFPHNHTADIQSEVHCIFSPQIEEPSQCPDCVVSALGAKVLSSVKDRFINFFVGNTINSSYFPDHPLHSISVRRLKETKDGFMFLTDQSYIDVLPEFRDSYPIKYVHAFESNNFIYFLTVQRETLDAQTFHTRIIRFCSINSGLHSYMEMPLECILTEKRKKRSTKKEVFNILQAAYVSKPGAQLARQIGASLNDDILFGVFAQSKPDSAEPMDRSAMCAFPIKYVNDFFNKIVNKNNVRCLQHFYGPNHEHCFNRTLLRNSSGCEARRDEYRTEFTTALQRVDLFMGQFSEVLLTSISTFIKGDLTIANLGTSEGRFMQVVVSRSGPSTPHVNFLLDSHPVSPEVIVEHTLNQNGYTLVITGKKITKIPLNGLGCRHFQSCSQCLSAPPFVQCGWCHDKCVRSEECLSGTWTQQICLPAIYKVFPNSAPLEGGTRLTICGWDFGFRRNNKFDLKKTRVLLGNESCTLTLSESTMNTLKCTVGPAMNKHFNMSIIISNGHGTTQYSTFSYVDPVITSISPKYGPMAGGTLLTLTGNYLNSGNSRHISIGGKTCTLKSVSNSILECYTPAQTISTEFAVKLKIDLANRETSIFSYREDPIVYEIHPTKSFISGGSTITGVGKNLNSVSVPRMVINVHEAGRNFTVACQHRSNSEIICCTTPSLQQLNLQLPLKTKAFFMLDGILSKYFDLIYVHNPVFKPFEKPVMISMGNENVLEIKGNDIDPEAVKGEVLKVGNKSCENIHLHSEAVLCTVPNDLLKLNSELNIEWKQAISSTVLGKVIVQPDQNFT", "assay": "ELISA, MET ECD coated, mAb 0-20 nM", "description": "(§1) Production (by transient transfection of mammalian cells) and purification (by protein A affinity chromatography) of the resulting chimeric llama-human IgG1 molecules was outsourced to U-protein Express. Binding of chimeric mAbs to MET was determined by ELISA using hMET or mMET ECD in solid phase and increasing concentrations of antibodies (0-20 nM) in solution. […] Binding capacity (EMAX) varied from antibody to antibody, possibly due to partial epitope exposure in the immobilized antigen, but was similar in the human and mouse setting."}, "mouse MET ECD": {"biological_target": "T4, mouse MET ECD (mouse, UniProt P16056 25-931)", "T4 construct": "range 1-931; recombinant; range as printed includes the signal peptide; also called mMET; mMET ECD", "assay": "ELISA, MET ECD coated, mAb 0-20 nM", "description": "as §1"}}}
{"binder": "71G3 llama-mouse chimeric mAb (mouse IgG1/lambda) (antibody, V domains shown) VH: QVQLVESGGGLVQPGGSLRVSCAASGFTFSTYYMSWVRQAPGKGLEWVSDIRTDGGTYYADSVKGRFTMSRDNAKNTLYLQMNSLKPEDTALYYCARTRIFPSGYDYWGQGTQVTVSS VL: QAVVTQEPSLSVSPGGTVTLTCGLSSGSVTTSNYPGWFQQTPGQAPRTLIYNTNSRHSGVPSRFSGSISGNKAALTIMGAQPEDEADYYCSLYPGSTTVFGGGTHLTVLG", "values": [{"measurement": "LOC br. m. (branch n.)", "setting": "[1]", "result": 20.8, "unit": "branches per spheroid"}, {"measurement": "MLP29 br. m. (branch n.)", "setting": "[2]", "result": 30.1, "unit": "branches per spheroid"}]}
{"binder": "71G2 llama-mouse chimeric mAb (mouse IgG1/lambda) (antibody, V domains shown) VH: EVQLQESGGGLVQPGGSLRLSCAASGFTFSIYDMSWVRQAPGKGLEWVSTINSDGSSTSYVDSVKGRFTISRDNAKNTLYLQMNSLKPEDTAVYYCAKVYGSTWDVGPMGYGMDYWGKGTLVTVSS VL: SSALTQPSALSVSLGQTARITCQGGSLGSSYAHWYQQKPGQAPVLVIYGDDSRPSGIPERFSGSSSGGTATLTISGAQAEDEDDYYCQSTDSSGNTVFGGGTRLTVLG", "values": [{"measurement": "LOC br. m. (branch n.)", "setting": "[1]", "result": 29.8, "unit": "branches per spheroid"}, {"measurement": "MLP29 br. m. (branch n.)", "setting": "[2]", "result": 41.2, "unit": "branches per spheroid"}]}
{"binder": "76G7 chimeric llama-human IgG1 mAb (antibody, V domains shown, human IgG1 CH1-CH2-CH3 and human CL lambda) VH: QVQLVESGGNLVQPGGSLRLSCAASGFTFSNYYMSWVRQAPGKGLEWVSDIYSDGSTTWYSDSVKGRFTISRDNAKNTLSLQMNSLKSEDTAVYYCARVKIYPGGYDAWGQGTQVTVSS VL: QAGLTQPPSVSGSPGKTVTISCAGNSSDVGYGNYVSWYQQFPGMAPKLLIYLVNKRASGITDRFSGSKSGNTASLTISGLQSEDEADYYCASYTGSNNIVFGGGTHLTVL", "values": [{"measurement": "phospho-MET ELISA EMAX, A549 cells", "setting": "[3]", "result": 62.3, "unit": "% HGF activity"}, {"measurement": "phospho-MET ELISA EMAX, MLP29 cells", "setting": "[4]", "result": 71.5, "unit": "% HGF activity"}, {"measurement": "protection from staurosporine-induced apoptosis EC50, MCF10A cells", "setting": "[5]", "result": 25.4, "unit": "nM"}, {"measurement": "protection from staurosporine-induced apoptosis EMAX, MCF10A cells", "setting": "[5]", "result": 51.9, "unit": "%"}, {"measurement": "protection from staurosporine-induced apoptosis EC50, MLP29 cells", "setting": "[6]", "result": 30.1, "unit": "nM"}, {"measurement": "protection from staurosporine-induced apoptosis EMAX, MLP29 cells", "setting": "[6]", "result": 50.2, "unit": "%"}, {"measurement": "EMAX", "setting": "human MET ECD", "result": 2.62, "unit": "OD450 AU"}, {"measurement": "EMAX", "setting": "mouse MET ECD", "result": 2.78, "unit": "OD450 AU"}]}
{"binder": "71G12 chimeric llama-human IgG1 mAb (antibody, V domains shown, human IgG1 CH1-CH2-CH3 and human CL kappa) VH: QVQLQESGGDLVQPGGSLRVSCVVSGFTFSRYYMSWVRQAPGKGLEWVSSIDSYGYSTYYTDSVKGRFTISRDNAKNTLYLQMNSLKPEDTALYYCARAKTTWSYDYWGQGTQVTVSS VL: EIVLTQSPSSVTASVGGKVTINCKSSQSVFIASNQKTYLNWYQQRPGQSPRLVISYASTRESGIPDRFSGSGSTTDFTLTISSVQPEDAAVYYCQQAYSHPTFGQGTKVELK", "values": [{"measurement": "phospho-MET ELISA EMAX, A549 cells", "setting": "[3]", "result": 70.6, "unit": "% HGF activity"}, {"measurement": "phospho-MET ELISA EMAX, MLP29 cells", "setting": "[4]", "result": 75.4, "unit": "% HGF activity"}, {"measurement": "protection from staurosporine-induced apoptosis EC50, MCF10A cells", "setting": "[5]", "result": "> 32", "unit": "nM"}, {"measurement": "protection from staurosporine-induced apoptosis EMAX, MCF10A cells", "setting": "[5]", "result": 39.4, "unit": "%"}, {"measurement": "protection from staurosporine-induced apoptosis EC50, MLP29 cells", "setting": "[6]", "result": "> 32", "unit": "nM"}, {"measurement": "protection from staurosporine-induced apoptosis EMAX, MLP29 cells", "setting": "[6]", "result": 39.7, "unit": "%"}, {"measurement": "EMAX", "setting": "human MET ECD", "result": 3.08, "unit": "OD450 AU"}, {"measurement": "EMAX", "setting": "mouse MET ECD", "result": 2.97, "unit": "OD450 AU"}]}
{"binder": "74C8 chimeric llama-human IgG1 mAb (antibody, V domains shown, human IgG1 CH1-CH2-CH3 and human CL lambda) VH: EVQLVESGGGLVQPGGSLRLSCAASGFTFRNYHMSWVRQVPGKGFEWISDINSAGGSTYYADSVKGRFTISRDNAKNTLYLEMNSLKPEDTALYYCARVNVWGVNYWGKGTLVSVSS VL: QTVVTQEPSLSVSPGGTVTLTCGLSSGSVTTSNYPGWFQQTPGQAPRTLIYNTNSRHSGVPSRFSGSISGNKAALTITGAQPEDEADYYCSLYPGSYTNVFGGGTHLTVL", "values": [{"measurement": "phospho-MET ELISA EMAX, A549 cells", "setting": "[3]", "result": 87.6, "unit": "% HGF activity"}, {"measurement": "phospho-MET ELISA EMAX, MLP29 cells", "setting": "[4]", "result": 102, "unit": "% HGF activity"}, {"measurement": "protection from staurosporine-induced apoptosis EC50, MCF10A cells", "setting": "[5]", "result": "> 32", "unit": "nM"}, {"measurement": "protection from staurosporine-induced apoptosis EMAX, MCF10A cells", "setting": "[5]", "result": 41.7, "unit": "%"}, {"measurement": "protection from staurosporine-induced apoptosis EC50, MLP29 cells", "setting": "[6]", "result": "> 32", "unit": "nM"}, {"measurement": "protection from staurosporine-induced apoptosis EMAX, MLP29 cells", "setting": "[6]", "result": 37.5, "unit": "%"}, {"measurement": "EMAX", "setting": "human MET ECD", "result": 0.994, "unit": "OD450 AU"}, {"measurement": "EMAX", "setting": "mouse MET ECD", "result": 0.896, "unit": "OD450 AU"}]}
{"binder": "72F8 chimeric llama-human IgG1 mAb (antibody, V domains shown, human IgG1 CH1-CH2-CH3 and human CL lambda) VH: ELQLVESGGGLVQPGGSLRLSCAASGFTFSNYVMSWVRQAPGKGLEWVSDTNSGGSTSYADSVKGRFTISRDNAKNTLYLQMNSLKPEDTALYYCARSFFYGMNYWGKGTQVTVSS VL: QSALTQPPSLSASPGSSVRLTCTLSSGNNIGSYDISWYQQKAGSPPRYLLNYYTDSRKHQDSGVPSRFSGSKDASANAGLLLISGLQPEDEADYYCSAYKSGSYRWVFGGGTHVTVL", "values": [{"measurement": "phospho-MET ELISA EMAX, A549 cells", "setting": "[3]", "result": 69.7, "unit": "% HGF activity"}, {"measurement": "phospho-MET ELISA EMAX, MLP29 cells", "setting": "[4]", "result": 66.8, "unit": "% HGF activity"}, {"measurement": "protection from staurosporine-induced apoptosis EC50, MCF10A cells", "setting": "[5]", "result": "> 32", "unit": "nM"}, {"measurement": "protection from staurosporine-induced apoptosis EMAX, MCF10A cells", "setting": "[5]", "result": 35.8, "unit": "%"}, {"measurement": "protection from staurosporine-induced apoptosis EC50, MLP29 cells", "setting": "[6]", "result": "> 32", "unit": "nM"}, {"measurement": "protection from staurosporine-induced apoptosis EMAX, MLP29 cells", "setting": "[6]", "result": 43.8, "unit": "%"}, {"measurement": "EMAX", "setting": "human MET ECD", "result": 2.78, "unit": "OD450 AU"}, {"measurement": "EMAX", "setting": "mouse MET ECD", "result": 2.9, "unit": "OD450 AU"}]}
{"binder": "recombinant mouse HGF (R&D Systems) (ligand, UniProt Q08048 33-728, looked up, biotinylated at the N-terminus using NHS-LC-biotin (in the competition ELISA only)) QKKRRNTLHEFKKSAKTTLTKEDPLLKIKTKKVNSADECANRCIRNRGFTFTCKAFVFDKSRKRCYWYPFNSMSSGVKKGFGHEFDLYENKDYIRNCIIGKGGSYKGTVSITKSGIKCQPWNSMIPHEHSFLPSSYRGKDLQENYCRNPRGEEGGPWCFTSNPEVRYEVCDIPQCSEVECMTCNGESYRGPMDHTESGKTCQRWDQQTPHRHKFLPERYPDKGFDDNYCRNPDGKPRPWCYTLDPDTPWEYCAIKTCAHSAVNETDVPMETTECIQGQGEGYRGTSNTIWNGIPCQRWDSQYPHKHDITPENFKCKDLRENYCRNPDGAESPWCFTTDPNIRVGYCSQIPKCDVSSGQDCYRGNGKNYMGNLSKTRSGLTCSMWDKNMEDLHRHIFWEPDASKLNKNYCRNPDDDAHGPWCYTGNPLIPWDYCPISRCEGDTTPTIVNLDHPVISCAKTKQLRVVNGIPTQTTVGWMVSLKYRNKHICGGSLIKESWVLTARQCFPARNKDLKDYEAWLGIHDVHERGEEKRKQILNISQLVYGPEGSDLVLLKLARPAILDNFVSTIDLPSYGCTIPEKTTCSIYGWGYTGLINADGLLRVAHLYIMGNEKCSQHHQGKVTLNESELCAGAEKIGSGPCEGDYGGPLICEQHKMRMVLGVIVPGRGCAIPNRPGIFVRVAYYAKWIHKVILTYKL", "values": [{"measurement": "phospho-MET ELISA EMAX, MLP29 cells", "setting": "[4]", "result": 100, "unit": "% HGF activity"}, {"measurement": "protection from staurosporine-induced apoptosis EC50, MLP29 cells", "setting": "[6]", "result": 5.35, "unit": "nM"}, {"measurement": "protection from staurosporine-induced apoptosis EMAX, MLP29 cells", "setting": "[6]", "result": 58.6, "unit": "%"}]}
